Data reported in article PMC4912634.

The substances below were run against tubulin heterodimer (porcine/bovine brain tubulin) (not stated (porcine or bovine brain)) (UniProt Q6B856) (assay: ITC; PN2-3 proteins/peptides titrated into tubulin in the cell; 15 °C; 1xBRB80 (80 mM PIPES-K, 1 mM MgCl2, 1 mM EGTA, pH 6.8); one set of binding sites model; tubulin 9 μM for wild type and mutant PN2-3).

Chain of human CPAP PN2-3 domain (aa 319-394), wild type (Q9HC77 319-394): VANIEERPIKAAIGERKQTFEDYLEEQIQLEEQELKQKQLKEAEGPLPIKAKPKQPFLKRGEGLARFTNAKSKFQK
Chain of human CPAP PN2-3 domain (aa 319-394) EE343RR (Q9HC77 other isoform, or with tags, fused parts or gaps): as the sequence (Q9HC77 319-394) above, with E25R, E26R counted along it
Chain of PN2-3N peptide (N-terminal helical region of PN2-3, aa 323-361 of CPAP) (Q9HC77 323-361): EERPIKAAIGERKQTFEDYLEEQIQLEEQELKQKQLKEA

Row | Kd | Substance
1 | 2.8 µM | human CPAP PN2-3 domain (aa 319-394) F375A (from UniProt Q9HC77 319-394) (domain or fragment)
2 | 0.0256 µM | human CPAP PN2-3 domain (aa 319-394), wild type (from UniProt Q9HC77 319-394) (domain or fragment)
3 | 68 µM | PN2-3N peptide (N-terminal helical region of PN2-3, aa 323-361 of CPAP) (from UniProt Q9HC77 323-361)
4 | 0.194 µM | human CPAP PN2-3 domain (aa 319-394) EE343RR (from UniProt Q9HC77 319-394) (domain or fragment)
